Data published in the nanobody polyreactivity screen of Harvey et al. (2022).

Experiment: yeast display, Sf9 membrane polyspecificity reagent, FACS + sequencing; frameworks hold sequencing errors
Method in brief: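 Polyreactivity labels are assigned by the sorting gate from which each nanobody was recovered. The gates were low and high (top ~1%), set on anti-HA fluorescence for expression and streptavidin fluorescence for reagent binding. Before sorting, galactose-induced (36–48 hours) yeast display cells were stained for 1 hour at 4 °C with 10% biotinylated, detergent-solubilized Sf9 membrane reagent.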

Row | Sequence | polyreactivity (PSR sort gate)
1 | QVQLVESGGGLVQAGGSLRLICAASGRIFGYYTMGRYRQAPGKERELVADNNRDGSTYADSVKGRFTISRDNAKNSVYIQMNSLKPEDTAVYYCIAQYDSAYGLGFFIGYFSQYDYWGQGTQVTVSS | low polyreactivity
2 | QVQLVESGGGLVQAGGSLRLSCAASGITFWRYALGWYRQAPGKEMELVAASRWSGSTYADSVKGRFTISRDNAKNTVYLQMNSLKPEDTAVYYCAAYPIGGYHDMDYWGQGTQVTVSS | high polyreactivity
3 | QVQLQESCGGLVQAGGCLRLSCAASGTIFDPDYMGWYHQAPCKERELVASISLGRITYYADSVKGRFTINRDNAKNTVYLQMNSLKPEDTAVYYCAVRVETIYYYSYWGQGTQVTVRS | high polyreactivity
4 | QVQLVESGGGLVQAGGSLRLSCAASGSIFRRNAMGWYRQVPGKERELVAAITWRGDRTYYADSVKGRFTISRDNAKNTVYLQMNSLKPEDTAVYYCNKLGRIQYDYWGQGTQVTVSS | high polyreactivity
5 | QVQLVESGGGLVQAGGSLRLSCAASGRIFAYYAMGWYRQAPGKDRELVATIRSGGDTNYADSVKGRFTISRDNAKNTVDIQMNSLKTEDTAVYYCNALYYWWYPHEYNYWGQGTQVTVSS | low polyreactivity
6 | QVQLVESGGGLVQAGGSLRLSCAASGNTFGTYVMGWYRPAPGKERELVAAISQSGGSTDYADSVKGRFTISRDNAKKTVYLQMNSLKPEDTAVYYCAKVTWGTVWYRSPSEYDYWGQGTQVTVSS | low polyreactivity
7 | QVQLVESGGGLDQEGVRLRLSCAASGRTFRIYAMGLYRQAPGNERELVAAISSDASTSYADSVKGRFTISRDNPKNTVYFQMNSLKPEATAVYYSAADPGPYFDWGYDFWGQGTQVTVSS | low polyreactivity
8 | QVKLVESGGGLVQAGGSLRLSCAASGIIFSGNAMGWYRQAPGKERELVAAITRGGRTYYADSVKGRFTISRDNAKNTVYLQMNSLKPEDTAVYYCAADDPHRAREYDYWGQGTQVTVSS | high polyreactivity
9 | QVQLVESGGGLVQAGGSLRLSCAASGRIFGRYAMGWYIQAPGKERELVAAISRRGVSTTYADSVKGRFTISRDNAKNTVYLQMNSLKPEDTAVYYCAAVRYGYSSTRDYLGQGTQVTVSS | high polyreactivity
10 | QVQLVESGGGLVQAGGSLRLSCAASGFTFDDYDMGWYRQAPGKERELVAAISWSGGSTYYADSVKGRFTFSRDNAKNTVYLQMNSLKPEDSAVYYCAAERSYGGFDYWGQGTQVTVSS | low polyreactivity
11 | QVQLVKSGGGLVQAGGSLRLSCAASGSTFYNAMGWYRQAPGKEREWVAAISIGGSTYYADSVKGRFTISRDNAKNTVYLQMNSLKPEDTAVYYCNSDLYYWLRYYDRNDYWGQGTQVTVSS | low polyreactivity
12 | QVQLVESGGGLVQAGGSLRLSCAASGSTFQGNAMGWYRHAPGKERELVAAISRSGGSTYADSVKGRFTISRDNAKNTVYLQINSLKPEDTAVYYCAAYSGVGYLWFDYWGQGTQVTVSS | low polyreactivity
13 | QVQLVESGGGLVQAGGSLRLSCAASGSIFDRYGMGLYRQAPGKETELVADITSDGSTNYADSLKGRFTISRDNAKNSVYLQMNSLKREDTAVYYCAVSYTAYYVGYDYWGQGTQVTVSS | low polyreactivity
14 | QVQLVESGGGLVQAGGSLRLSCAASGYIFRFNAMGWYRQAPGKERELVAAISRSGGRTYYADSVKGRFTISRDNAKNTVYLQMNSLKPEDTAVYYCAAVRYKGGGNQPYGYWGQGTQVTVSS | high polyreactivity
15 | QVQLVESGGGLVQAGGSIRLSCAASGFTFKGNVMGWYRQAPGKERELVAAISRSGGRTYYADSVKGRFTISRDNAKNTVYLQMNSLKPEDTAVYYCAAVVQSSEPVEYDYWGQGTQVTVSS | high polyreactivity
16 | QVQLVESGGGLVQAGGSLRLSCAASGRTFASYAMGWYRQAPGKERELVAGITSGGNTYYADSVKGRFTISRDNAKNTVYLQMNSLKPEDTAVYYCNAVRRVSSAGEFDYWGQGTQVTVSS | high polyreactivity
17 | QVQLVESGGGLVQAGGSLRLSCAASGRTFYIYAMGWYRQAPGKERELVAAISGSGGSTYYADSVKGRFTISRDNAKNTVYFQMNSLKPEDTAVYYCATKLRRSRYVRYDYWGQGTQVTVSS | high polyreactivity
18 | QVQLVESGGGLVQAGGSLRLSCAASGNTFRFYTMGWYRQAPGKERELVAAINSSGRTNYADSVKGRFTISRDNAKNTVYLQMNSLKPEDTAVYYCAATVWVYRRSRDYWGQGTQVTVSS | low polyreactivity
19 | QVQLVESGGGLVQAGGSLRLSCAASGRTFPYYAMGWSRQAPGKERELVAAITRGGNTNYADSVKGRFTISRDNAKNTVYLQMNSLKPEDTAVYYCAALVRAGPRRGTIYDYWGQGTQVTVSS | high polyreactivity
20 | QVQLVESGGGLVQAGGSLRLSCAASGSIFGTNGMGWYRQAPGKERELVAAITRRGGSTYADSVKGRFTISRDNAKNTVYLQMNSLKPEDTAVYYCAVDQGYVVRLAWIYGYWGQGTQVTVSS | low polyreactivity
21 | QVQLVESAAGLVQAGASHRLSCAASARTFTVNAMGWYRQAPGKERELVAAISGRSGRTSYADSVKGRFTISRDNAKNTVYLQMNSLKQEVTAVYYCAADYYFYFTYPARFGYWGLGTQVTVSS | high polyreactivity
22 | QVQHVESGGGLVQAGGSLRLSSAASGRIFPINAMGWYRQAPGKERELVAAISYSGGSTYYADSVKGRFTISRDNAKNTVYLQMNSLKPEDTAVFYCNARYPYSYYHRYYYWGQGTQVTVSS | high polyreactivity

Row | Sequence | polyreactivity (PSR sort gate)
23 | QVQLVESGGGLVEAGGSLRLSCAASGFTFGYYAMGWYRPAPGKERELVAAITNGGRTNYAYSVKGRFTISRDNAKNTVYLQMNSLKPEDTAVYFCATDHYWSREVYWGQGTQVTVSS | low polyreactivity
24 | QVQLVESGGGLVQAGGSLRLSCAASGRTLVGNAMGWYRQAPGKERELVAAISWSGGSTNYADSVKGRFTISRDNAKNTVYLQMNSLKPEDTAVYYCAASVYTYRYWDYYWGQGTQVTVSS | high polyreactivity
25 | QVQLVESGGGLVQAGGSLRLSCAASGLIFYDNMGWSRQAPGKERELVAAISSSGGSTSYADSVKGRFTISRDNAKNTVYLQMNSLKPADTAVYYCAADSYPAYLGFVGFDYWGQGTQVTVSS | low polyreactivity
26 | QVQLVESGGGLVQAGGSLRLSCAPSGRIIRPYAKGWYIQAPGKERELVAAISVSGVITYYADSVKGRFTISRDNAKNTVYLQMNSLKPEDTAVYYCATDYTRRRWGRLYDYWGQGTQVTVSS | low polyreactivity
27 | QVQLQESSGGLVQAGGSLRMSCAASGTIFHIHIMGRYRQAPGKEGEFVAAISYGTSTYYADSVKGRFTISRDNAKNTVYLQMNSQKPEDTAVYYCAVYDYLEVYFWYWGQGTQVTVSS | low polyreactivity
28 | QVQLVESGGGLVQAGGSLRLSCAASGRTFYRNAMGWYRQAPGKERELVAAITTSGGRTYYADSVKGRFTISRDNAKNTVYLQMNSLKPEDTAVYYCNAVYYGRTYASGYDYWGQGTQVTVSS | high polyreactivity
29 | QVQLVESGGGLVQAGGSLRLSCAASGRIFIYNAMGWSRQAPGIERELVARIRDRGDSTNYADSVKGRFTISRDNAKNTVYLQMNSLKPEDTAVYYCAAQPWLRYYYWGQGTQVTVSS | low polyreactivity
30 | QVQIVESGGGLVQAGGSLRLSCAASGTTFRFYAMGWYRQAPGKERELVAAIRRGGSTYYADSVKGRFTISRDNAKNTVYLQMNSLKPEDTAVYFCAAEPGYYSRPDYRVYRLYYWGLGTQVTVSS | high polyreactivity
31 | QVQLVESGGGLVQAGGSLRLSCAASGRIFSGYTMGWYRQAPGKERELVAAIRVGGGRTYYADSVKGRFTISRDNSKNTVYLQMYSLKPEDTAVYYCAKLYIRHGYDYWGQGTQVTVSS | low polyreactivity
32 | QVQLVESGGGLVQAGGSLRLTCAASGFILSSNAMGWYRQAPGKERELVAAITRSGGSTYYADSVKGRFTISRDNAKNTVYLEMNSLKPEDTAVYYCNRLYYSGSGASLDYWGQGTQVTVSS | high polyreactivity
33 | QVQLVESVGGLVQAGGSLRLSCAASGRTFWWNAMGWYRQAPGKEREFVAAIRSTGGRTYYADSVKGRFTISRDNAKNTVYLQMNSLKPEDTAVYYCAAYTLDPYGFLYEYWGQGTQVTVSS | high polyreactivity
34 | QVQLVESGGGLVHAGSSLRLSCAASGSTYPYNAMGWYRQAPGKERELVAAIDYSGGSTYAVSVKGRFTISRDNAKNTVYLQMNSLTPEDTAVYYCAYCRVVVYDVSGDDEDYDYWGQGSQVTVSS | low polyreactivity
35 | QGQLVESGGGLVQAGCSLRLSCAASGSTFSYYAMGWYRQAPGKETELVAAIRKSGGSTYYADSVKGRFTISRDNAKNTVYLQMNSLKPEDTAVNSCVAVFSYYGWYSRYDYWGQGTQVTVSS | low polyreactivity
36 | QVQLVESGGGLVQAGGSLRLSCAASGFIFSYYVMGWYRQAPGKERELVAAINESGGRTYYADSVKGRFTISRDNAKNTVYLQMNSLKPEDTAVYYCAASVLNKIQGYRDYYWGQGTQVTVSS | low polyreactivity
37 | QVQLVESGGGLVQAGGSLRLSCAASGYTFDGYPRGWYRQAPGKERELVAVITKSGGRTYYADSVKGRFTNSRDNAKNTVYLQMNSLKPEDTAVYYCAADDSGTKDIVEGEYWGQGTQVTVSS | high polyreactivity
38 | QVQLVESGGGLVQAGGSLRLSCAASGSIFDYYAMGWYRQAPGKERELVAAISWSGGSTYYADSVKGRFTISRDNAKNTVYLQMNSLKPEDTAVYYCAAEYYGGELDYWGQGTQVTVSS | low polyreactivity
39 | QVQLVESGGGLVQAGGSLRLSCAASGLIIGYNAMGLYRQAPGKERELVAAISRSGTHTYYADSVKGRFTISRDNAKNTFNLQMNSLIPEDTAVYYCNATNRRWHRPYSTYWYYYWGQGTQVTVSS | high polyreactivity
40 | QVQLVESGGGLVQAGGSLRLSCAASGSIFDVNTMGWYRQAPGKERELVAAITNGDRTNYADSVKGRFTISRDNAKNTVYLQMNSLKPEDTAVYYCAADSVLDRPVLYLWPWYLGDYWGQGTQVTVSS | low polyreactivity
41 | QVQLVESGGGLVQAGGRLRLSCAASGRTFKLYAMGWYRQAPGKERELVAAISGRGGSTYYADSVKGRFTISRDNAKNTVYLQMNSLKPEDTAVYYCNWYGKYEYWGQGTQVTVSS | high polyreactivity
42 | QVQLVESGGGLVQAGGSLRLSCAASGSSFDDYTMVWYRQAPGKERELVADSTESGGTTYADSVKGRFTISRDNAKNTVYLQMYSLKPVDTAVYYCNADIYISPLVQVSKGYDYWGQGTQVTVSS | low polyreactivity
43 | QVQLVESGGGLVQAGGSLRLSCAASGFTFRAYAMGWYRQAPGKERELVAAISRSGTSTYYADSVKGRFTISRDNAKYTVYLQMNSLKPEDTAVYYCAARLGPYHYATKMYYWGQGTQVTVSS | high polyreactivity
